Measurements reported in article PMC4875590, “LATE ELONGATED HYPOCOTYL regulates photoperiodic flowering via the circadian clock in Arabidopsis”.

B1: FT CBS (dsDNA)
DNA 1: GCTTTAGATTTTTAATAG
DNA 2: CTATTAAAAATCTAAAGC
B2: FT EE (dsDNA)
DNA 1: TAATTAAAATATCTGCAAA
DNA 2: TTTGCAGATATTTTAATTA

Biological target: MBP-CCA1 (Arabidopsis thaliana, UniProt P92973 1-608)
Experiment: EMSA; 100 ng protein; 100 ng poly(dI-dC); EMSA: 10 mM Tris-HCl pH 7.6, 50 mM NaCl, 1 mM EDTA, 5 mM DTT, 5% glycerol, 100 ng poly(dI-dC), 30 min, room temperature; 6% native PAGE
Conditions: protein: recombinant; tags: MBP (N-terminal, pMAL-c2X); label: 32P end label

Sequence of MBP-CCA1 (P92973 whole entry): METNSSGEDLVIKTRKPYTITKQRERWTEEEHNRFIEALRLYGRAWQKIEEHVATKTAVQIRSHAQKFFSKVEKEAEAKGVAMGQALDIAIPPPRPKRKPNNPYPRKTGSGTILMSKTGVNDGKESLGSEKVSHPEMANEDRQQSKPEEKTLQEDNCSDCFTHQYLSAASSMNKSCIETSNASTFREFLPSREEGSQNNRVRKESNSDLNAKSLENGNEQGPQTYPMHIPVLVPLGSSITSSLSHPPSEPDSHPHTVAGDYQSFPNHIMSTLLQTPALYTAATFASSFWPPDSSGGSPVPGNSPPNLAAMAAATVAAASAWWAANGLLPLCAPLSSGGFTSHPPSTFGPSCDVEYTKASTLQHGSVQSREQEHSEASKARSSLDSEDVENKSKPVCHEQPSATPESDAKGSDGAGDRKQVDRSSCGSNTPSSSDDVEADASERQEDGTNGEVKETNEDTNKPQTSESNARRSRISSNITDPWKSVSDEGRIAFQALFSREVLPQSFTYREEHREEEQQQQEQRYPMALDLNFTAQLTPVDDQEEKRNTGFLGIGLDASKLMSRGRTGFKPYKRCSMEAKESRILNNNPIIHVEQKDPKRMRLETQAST

Binder	binding result
B1	binds
B2	binds
